Reference: patent US20230304010A1, “COMPOSITIONS AND METHODS FOR TREATING VIRAL INFECTIONS” (priority 2020, published 2023)
“And” between values parts separate entries of the source, which are not always exact repeats. Equal entries are not always repeated. Where two headings read alike, the source gives them in different places.

Legend:
[1] = target: SARS-CoV-2 Spike (SARS-CoV-2), P0DTC2; experiment: inhibitor screening kit; ACE2:SARS-CoV-2 Spike (Example 4 assay)
[2] = target: SARS-CoV-2 Spike (SARS-CoV-2), P0DTC2; experiment: inhibitor screening kit; SARS-CoV-2 Spike:ACE2 (Example 3 assay)
ACE2, Q9BYF1 [3] = target: ACE2, Q9BYF1
ACE2, Q9BYF1, sequence (Q9BYF1 18-740 limits assumed): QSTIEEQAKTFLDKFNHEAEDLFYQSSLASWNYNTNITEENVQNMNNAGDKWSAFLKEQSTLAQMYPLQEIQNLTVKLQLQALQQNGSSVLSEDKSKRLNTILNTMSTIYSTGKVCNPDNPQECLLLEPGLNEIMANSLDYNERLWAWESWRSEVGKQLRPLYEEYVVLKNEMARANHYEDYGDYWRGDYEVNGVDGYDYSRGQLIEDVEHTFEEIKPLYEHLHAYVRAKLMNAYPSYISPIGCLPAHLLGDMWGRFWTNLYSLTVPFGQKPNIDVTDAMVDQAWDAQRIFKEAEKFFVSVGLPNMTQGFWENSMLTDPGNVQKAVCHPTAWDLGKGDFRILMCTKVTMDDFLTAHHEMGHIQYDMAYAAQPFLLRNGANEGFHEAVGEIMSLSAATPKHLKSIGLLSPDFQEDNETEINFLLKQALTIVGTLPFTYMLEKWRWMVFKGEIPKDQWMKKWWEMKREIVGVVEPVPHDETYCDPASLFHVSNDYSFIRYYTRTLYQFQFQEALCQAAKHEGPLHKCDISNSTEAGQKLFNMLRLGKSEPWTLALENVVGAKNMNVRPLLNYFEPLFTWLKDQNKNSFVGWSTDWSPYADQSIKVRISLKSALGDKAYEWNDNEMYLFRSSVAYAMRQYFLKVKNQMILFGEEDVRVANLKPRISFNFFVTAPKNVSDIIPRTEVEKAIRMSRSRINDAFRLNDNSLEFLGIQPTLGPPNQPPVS

ACE2, Q9BYF1 [4] = experiment: inhibitor screening kit, ADGN-106 nanoparticles (Example 6, section A)
ACE2, Q9BYF1 [5] = experiment: inhibitor screening kit, ADGN-106 nanoparticles (Example 6, section B)
[6] = target: SARS-CoV-2 Spike (SARS-CoV-2), P0DTC2; experiment: ACE2:SARS-CoV-2 Spike inhibitor screening kit (Example 3)
[7] = target: SARS-CoV-2 Spike (SARS-CoV-2), P0DTC2; experiment: SARS-CoV-2 Spike:ACE2 inhibitor screening kit (Example 4)
[8] = target: SARS-CoV-2 Spike (SARS-CoV-2), P0DTC2
[9] = target: SARS-CoV-2 Spike (SARS-CoV-2), P0DTC2; remark: listed apart in the source
[10] = target: SARS-CoV-2 Spike (SARS-CoV-2), P0DTC2; experiment: ACE2:SARS-CoV-2 Spike kit, ACE2 on plate, Spike-Fc added; competitor ACE2
[11] = target: SARS-CoV-2 Spike (SARS-CoV-2), P0DTC2; experiment: SARS-CoV-2 Spike:ACE2 inhibitor screening kit (Example 4); Table 7 prints 38.6

Binder: KTFLDKFNHEAEDLF (modifications not checked) [Seq25 (LNCOV-33)]
- IC50 [1]: 1900 nM
- IC50 [2]: 2500 nM

B1: Seq17 (LNCOV-15)/ADGN-106 nanoparticle complex (peptide)
peptide 1: NGVEGFNKLWRALWRLWRSLWRLLWK
peptide 2: LWRALWRLWRSLWRLLWK
modifications: not checked
- IC50 (ACE2, Q9BYF1 [3]): 3.4 nM and 2.7 nM
- fold more potent than SBP-1-ADGN-106/ADGN-106 complex (ACE2, Q9BYF1 [4]): 6 fold
- fold more potent than SBP-1 peptide/ADGN-106 complex (ACE2, Q9BYF1 [4]): 40 fold
- fold more potent than SBP-1-ADGN-106/ADGN-106 complex (ACE2, Q9BYF1 [5]): 4 fold
- fold more potent than SBP-1 peptide/ADGN-106 complex (ACE2, Q9BYF1 [5]): 35 fold

B2: Seq20 (LNCOV-24)/ADGN-106 nanoparticle complex (peptide)
peptide 1: SYGFQPTNGVLWRALWRLWRSLWRLLWK
peptide 2: LWRALWRLWRSLWRLLWK
modifications: not checked
- IC50 (ACE2, Q9BYF1 [3]): 3.7 nM and 8.7 nM
- fold more potent than SBP-1-ADGN-106/ADGN-106 complex (ACE2, Q9BYF1 [4]): 6 fold
- fold more potent than SBP-1 peptide/ADGN-106 complex (ACE2, Q9BYF1 [4]): 40 fold

Binder: NMTQGFWENSMLTD (modifications not checked) [Seq30 (LNCOV-36)]
- IC50 [1]: > 10000 nM
- IC50 [2]: > 10000 nM

B3: Seq21 (LNCOV-13)/ADGN-106 nanoparticle complex (peptide)
peptide 1: GFQPTNGVKLWRALWRLWRSLWRLLWK
peptide 2: LWRALWRLWRSLWRLLWK
modifications: not checked
- IC50 (ACE2, Q9BYF1 [3]): 5.2 nM and 11.2 nM

Binder: NMTQGFWENPGGPTAWDLGK (modifications not checked) [Seq31 (LNCOV-37)]
- IC50 [6]: 25000 nM
- IC50 [7]: 25000 nM
- IC50 [1]: > 10000 nM
- IC50 [2]: > 10000 nM

Binder: NMTQGFWENSMLTDLWRALWRLWRSLWRLLWK (modifications not checked) [Seq37 (LNCOV-29)]
- IC50 [1]: 645 nM
- IC50 [2]: > 1000 nM

B4: Seq38 (LNCOV-30)/ADGN-106 nanoparticle complex (protein)
peptide 1: NMTQGFWENPGGPTAWDLGKLWRALWRLWRSLWRLLWK
peptide 2: LWRALWRLWRSLWRLLWK
modifications: not checked
- IC50 [8]: 91.4 nM and 49.7 nM

Binder: KTFLDKFNHEAEDLFYS (modifications not checked) [Seq26 (LNCOV-34)]
- IC50 [1]: 2100 nM
- IC50 [2]: 1900 nM

Binder: EQAKTFLDKFNHEAEDLF (modifications not checked) [Seq24 (LNCOV-19)]
- IC50 [9]: 570000 nM
- IC50 [7]: 570 nM
- IC50 [2]: 1300 nM

B5: Seq32 (LNCOV-21)/ADGN-106 nanoparticle complex (protein)
peptide 1: IEEQAKTFLDKFNHEAEDLFYQSLWRALWRLWRSLWRLLWK
peptide 2: LWRALWRLWRSLWRLLWK
modifications: not checked
- IC50 [8]: 24.5 nM and 7.2 nM

Binder: TAWDLGKGDFRILWRALWRLWRSLWRLLWK (modifications not checked) [Seq36 (LNCOV-28)]
- IC50 [1]: > 1000 nM
- IC50 [2]: > 1000 nM

Binder: EQAKTFLDKFNHEAEDLFLWRALWRLWRSLWRLLWK (modifications not checked) [Seq33 (LNCOV-18)]
- fold more potent than SBP-1 coupled to ADGN-106 [7]: 8 fold
- fold more potent than free SBP-1 [7]: 14 fold
- IC50 [10]: 18.4 nM
- IC50 [1]: 18.4 nM
- IC50 [2]: 178 nM

B6: Seq35 (LNCOV-26)/ADGN-106 nanoparticle complex (protein)
peptide 1: KTFLDKFNHEAEDLFYSLWRALWRLWRSLWRLLWK
peptide 2: LWRALWRLWRSLWRLLWK
modifications: not checked
- IC50 [8]: 217 nM and 55.4 nM

Binder: KTFLDKFNHEAEDLFYSLWRALWRLWRSLWRLLWK (modifications not checked) [Seq35 (LNCOV-26)]
- IC50 [1]: 728 nM
- IC50 [2]: 546 nM

Binder: KTFLDKFNHEAEDLFLWRALWRLWRSLWRLLWK (modifications not checked) [Seq34 (LNCOV-25)]
- IC50 [1]: > 1000 nM
- IC50 [2]: > 1000 nM

Binder: TAWDLGKGDFRI (modifications not checked) [Seq29 (LNCOV-35)]
- IC50 [1]: > 10000 nM
- IC50 [2]: > 10000 nM

Binder: EQAKTFLDKFNHEAEDLFPKWSAFLKEQSTLAQMYG (modifications not checked) [Seq27 (LNCOV-27)]
- IC50 [6]: 50 nM
- fold more potent than SBP-1 coupled to ADGN-106 [6]: 6 fold
- fold more potent than free SBP-1 [6]: 15 fold
- fold more potent than SBP-1 coupled to ADGN-106 [7]: 3.5 fold
- fold more potent than free SBP-1 [7]: 7 fold
- IC50 [1]: 37.4 nM
- IC50 [2]: 66.1 nM

B7: Seq39 (LNCOV-31) (peptide)
peptide: EQAKTFLDKFNHEAEDLFPKWSAFLKEQSTLAQMYGLWRALWRLWRSLWRLLWK
modifications: not checked
- fold increase of efficiency over the uncoupled peptide (Seq27/Seq28) [6]: 1.4 fold
- IC50 [1]: 68.4 nM
- IC50 [2]: 55.2 nM

B8: Seq40 (LNCOV-32) (peptide)
peptide: KTFLDKFNHEAEDLFPKWSAFLKEQSTLAQMYGLWRALWRLWRSLWRLLWK
modifications: not checked
- fold increase of efficiency over the uncoupled peptide (Seq27/Seq28) [6]: 1.4 fold
- IC50 [1]: 85.4 nM
- IC50 [2]: 45.1 nM

Binder: KTFLDKFNHEAEDLFPGPKWSAFLKEQSTLAQMYG (modifications not checked) [Seq28 (LNCOV-20)]
- IC50 [6]: 50 nM
- fold more potent than SBP-1 coupled to ADGN-106 [6]: 6 fold
- fold more potent than free SBP-1 [6]: 15 fold
- fold more potent than SBP-1 coupled to ADGN-106 [7]: 3.5 fold
- fold more potent than free SBP-1 [7]: 7 fold
- IC50 [10]: 38.6 nM
- IC50 [1]: 38.6 nM
- IC50 [2]: 58.7 nM
- IC50 [11]: 38.5 nM
